Laboratory results taken from patent US20130156764A1, “NEUTRALIZATION OF FLT3 LIGAND AS A LEUKEMIA THERAPY” (The Johns Hopkins University, priority 2010, published 2013).

Tests used:
FLT3/ITD in MV411 cells = target: T1, FLT3/ITD in MV411 cells (Homo sapiens, UniProt P36888, INS600HVDFREYEYD); experiment: FL stimulation, FLT3 phosphorylation in MV411 cells; assay type: cell-based
T1 construct: endogenous in cells; host or cells: MV411
T1 sequence (P36888 with tags, fused parts or gaps INS600HVDFREYEYD): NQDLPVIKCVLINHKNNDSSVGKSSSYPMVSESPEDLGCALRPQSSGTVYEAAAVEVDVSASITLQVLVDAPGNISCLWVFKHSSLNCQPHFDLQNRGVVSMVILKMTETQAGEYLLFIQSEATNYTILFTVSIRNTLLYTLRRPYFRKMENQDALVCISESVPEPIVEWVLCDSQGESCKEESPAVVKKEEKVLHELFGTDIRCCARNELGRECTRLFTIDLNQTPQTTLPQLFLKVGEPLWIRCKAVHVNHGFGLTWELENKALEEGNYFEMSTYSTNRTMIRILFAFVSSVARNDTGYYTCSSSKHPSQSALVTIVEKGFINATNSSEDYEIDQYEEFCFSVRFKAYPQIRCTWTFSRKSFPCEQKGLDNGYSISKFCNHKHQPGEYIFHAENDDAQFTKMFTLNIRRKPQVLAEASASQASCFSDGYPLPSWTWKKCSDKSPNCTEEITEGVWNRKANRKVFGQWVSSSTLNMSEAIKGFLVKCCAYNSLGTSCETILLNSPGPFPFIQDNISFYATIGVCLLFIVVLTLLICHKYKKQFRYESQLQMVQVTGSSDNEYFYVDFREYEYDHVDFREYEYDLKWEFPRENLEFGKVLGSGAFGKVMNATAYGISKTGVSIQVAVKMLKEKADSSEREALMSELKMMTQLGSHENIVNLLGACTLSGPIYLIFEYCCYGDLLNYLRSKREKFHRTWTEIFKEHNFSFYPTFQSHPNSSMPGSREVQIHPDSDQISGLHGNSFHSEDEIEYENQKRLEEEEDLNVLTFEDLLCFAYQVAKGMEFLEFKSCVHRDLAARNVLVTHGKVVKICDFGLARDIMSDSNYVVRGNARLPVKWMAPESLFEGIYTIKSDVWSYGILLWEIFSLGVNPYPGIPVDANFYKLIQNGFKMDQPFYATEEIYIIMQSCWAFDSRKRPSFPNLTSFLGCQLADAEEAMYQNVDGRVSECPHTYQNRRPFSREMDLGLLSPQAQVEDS

[1] = system: FLT3/ITD in primary AML blasts; experiment: FL stimulation, FLT3 phosphorylation in primary AML blasts with homozygous FLT3/ITD; assay type: cell-based, human; settings: 100 ng/mL FL
Method: To study whether further activation of mutant FLT3 receptors in response to FL also occurs in primary cells, experiments were carried on primary AML blasts expressing homozygous FLT3/ITD mutations (i.e., no detectable wild type FLT3 by PCR). The blasts were stimulated with 100 ng/mL FL. […] The survival of AML blasts was assessed by culturing them in complete medium with and without FL for 4 days.

[2] = system: primary AML blast samples harboring a FLT3/ITD mutation; experiment: MTT assay in primary AML blast samples with FLT3/ITD mutation with FL; assay type: cell-based, human; settings: addition of exogenous FL, all 3 samples
Description: Leukemia cell specimens were provided by the Sidney Kimmel Cancer Center at Johns Hopkins Tumor and Cell Procurement Bank. All patients gave informed consent according to the Declaration of Helsinki. The specimens were obtained by Ficoll purifying mononuclear cells from the peripheral blood patients with FLT3/ITD AML. The mononuclear cells were aliquoted and stored frozen in liquid nitrogen in bovine serum with 10% DMSO for repeated use. Prior to each use, aliquots of these blasts were thawed rapidly into warm culture medium, incubated for 12 hours, and then recentrifuged over Ficoll to eliminate cells dying from the freeze-thaw process. Using this method, blasts were obtained that maintained satisfactory viability (as determined by Trypan blue exclusion) and responsiveness to cytotoxic agents in culture over 72 hours.
Cytotoxicity was assessed using an MTT (Dimethyl-thiazol diphenyl tetrazolium bromide) assay. In selected cases, an Annexin-V binding apoptosis assay was also used to confirm that the cytotoxic effect observed (or lack thereof) was associated with an equivalent degree of apoptosis. MTT (Roche, Indianapolis, Ind.) and Annexin V (Pharmingen, San Diego, Calif.) assays were performed as described previously.
In three primary samples from AML patients with FLT3/ITD mutations (FIG. 8), a similar pattern of response to FL and FLT3 inhibition was observed.

[3] = system: AKT and MAPK phosphorylation; experiment: FL stimulation, downstream signaling immunoblot in BaF3/ITD and BaF3/TKD cells; assay type: cell-based
Method: TF1 and BaF3 cells were transfected with pCINeo constructs containing either FLT3/ITD or FLT3/TKD mutation by electroporation (Bio-Rad, Hercules, Calif.). Stable transfectants were then selected by limiting dilution in 96-well plates with 1 mg/mL G418 (Invitrogen, Carlsbad, Calif.).
BaF3 is another cell line lacking expression of endogenous FLT3. BaF3 cells transfected with mutant forms of FLT3 were starved in serum-free medium for 16 hours and washed with PBS before FL stimulation. […] Changes of other FLT3 downstream signals were not observed. An MTT survival assay was performed in BaF3/ITD and BaF3/TKD cells cultured in serum-free medium in the presence and absence of FL for 4 days. […] The effect was also confirmed by counting viable cell numbers by trypan blue exclusion (FIG. 13C, P<0.05). These findings indicate that FL stimulation prolongs the survival of cells expressing FLT3 mutants.

[4] = system: STAT5 and AKT phosphorylation; experiment: FL stimulation, downstream signaling in MV411 cells; assay type: cell-based, human

phosphorylation of FLT3 (FLT3/ITD in MV411 cells): increased phosphorylation
B1: FL: Recombinant human FL (fms-related tyrosine kinase ligand) purchased from PeproTech; SEQ ID NO: 1 (protein, listed as Homo sapiens)
chain: MTVLAPAWSPTTYLLLLLLLSSGLSGTQDCSFQHSPISSDFAVKIRELSDYLLQDYPVTVASNLQDEELCGGLWRLVLAQRWMERLKTVAGSKMQGLLERVNTEIHFVTKCAFQPPPSCLRFVQTNISRLLQETSEQLVALKPWITRQNFSRCLELQCQPDSSTLPPPWSPRPLEATAPTAPQPPLLLLLLLPVGLLLLAAAWCLHWQRTRRRTPRPGEQVPPVPSPQDLLLVEH
FLT3 phosphorylation [1]: enhanced FLT3 phosphorylation | metabolic activity of the sample in culture medium [2]: increased | increase of phosphorylation of AKT ([3]; BaF3/ITD): 1.3 fold | MAPK phosphorylation ([3]; BaF3/ITD and BaF3/TKD): increase of MAPK phosphorylation | increase of phosphorylation of AKT ([3]; BaF3/TKD): 2.2 fold | phosphorylation of FLT3 downstream signaling, including STAT5 and AKT [4]: Slightly enhanced phosphorylation
